Laboratory results as given in the nanobody polyreactivity screen of Harvey et al. (2022).

Assay: yeast display, Sf9 membrane polyspecificity reagent, FACS + sequencing; frameworks hold sequencing errors
Method in brief: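 Sorting gates, low and high (top ~1%), were placed on anti-HA fluorescence to track expression and on streptavidin fluorescence to track reagent binding. A clone's polyreactivity label is taken from the gate it came out of. The reagent was 10% biotinylated, detergent-solubilized Sf9 membrane, applied for 1 hour at 4 °C to galactose-induced yeast display cells.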

Sequence | polyreactivity (PSR sort gate)
QVQLVESGGGLVQAGGSLRLSCAASGLIFSVYAMGWYRQAPGKERELVAAISWSGSTYYADSVKGRFTISRDNAKNTVYLQMNSLKPEDTAVYYCAAEYDYDHFYWMDYWGQGTQVTVSS | high polyreactivity
QVQLVESGGGLVQAGGSLRLSCAASGLIFSWYAMGWYRQAPGKEREFVAGISKGGDSTYYADSVKGRFTISRDNAKNTVYLQMNSLKPEDTAVYYCAADWWQGTSHYWGGAYNYWGQGTQVTVSS | low polyreactivity
QVQLVESGGGLVQAGGSLRLSCAASGLIFSYNAMGWYRPATGNERELVATIRRVGSTNYADSVKGRFTISRDNAKITVYLQMNSLKPEDTAVYYCAARSLRYGRGMYYWGQGTQVTVSS | high polyreactivity
QVQLVESGGGLVQAGGSLRLSCAASGLIFSYYVMGWYRQAHGKERELVAAISRRGGSTYYADSVKGRFTISRDNAKNTVYLQMNSLKPEDTAVYYCNAQRNFKSITEYDYWGQGTQVTVSS | high polyreactivity
QVQLVESGGGLVQAGGSLRLSCAASGLIFSYYVMGWYRQAPGKERELVAAISRIGGSTYYADSVKGRFTISRDNAKNTVYLQMNSLKPEDTAVYYCAAYDLSPGSLTGGYYWGQGTQVTVSS | high polyreactivity
QVQLVESGGGLVQAGGSLRLSCAASGLIFTPYAMGWYRQAPGKESELVAAISSSGGTTYYADSVKGRFTISRDNAKNTVYLQMKSLKPEDTAVYYCAADTGYPGYYPEYYWGQGTQVTVSS | high polyreactivity
QVQLVESGGGLVQAGGSLRLSCAASGLIFTRNAMGWYRQAPGKERELVASISNSGGSTYYADSVKGRFTISRDNAKNTVYLQMNSLKPEDTAVYYCAAPTHLHGHGNQNEFYYWGQGTQVTVSS | low polyreactivity
QVQLVESGGGLVQAGGSLRLSCAASGLIFTRNAMGWYRQAPGKERELVATITWSGGRTYYADSVKGRFTISRDNAKNTVYLQMNSLKPEDTAVYYCAAASGPLTYTFFRNDYWGQGTQVTVSS | low polyreactivity
QVQLVESGGGLVQAGGSLRLSCAASGLIFTSYPMGWDRQAPGKERELVAAIDTSGGSTYYADSVKGRFTISRDNAKNTVYLQMNSLKPEDTAVYYCAATSTYRSYLEYDYWGQGTQVTVSS | low polyreactivity
QVQLVESGGGLVQAGGSLRLSCAASGLIFTTNAMGWSRPAPGTEREFVAAISPSGGSTYYADSVKGRFTISRDNAKNTVYLQMNSLKPEDTAVYYCAARYSPVWHKYYYWGQGTQVTVSS | high polyreactivity
QVQLVESGGGLVQAGGSLRLSCAASGLIFTTNAMGWYRQAPGKEREFVAAISPSGGSTYYADSVKGRFTISRDNAKNTVYLQMNSLKPEDTAVYYCAAAGWSARGYNYWGQGTQVTVSS | high polyreactivity
QVQLVESGGGLVQAGGSLRLSCAASGLIFTTYDMGWYRQAPGKERELVAAISASSDTTYYADSVKGRFTISRDNAKNTVYLQMNSLKPEDTAVYYCAADRFDFPTATGSNYWGQGTQVTVSS | low polyreactivity
QVQLVESGGGLVQAGGSLRLSCAASGLIFTYYAMGWYRQAPGKERELVAGISSGTNTNYADSVKGRFTISRDNAKNTVYLQMISLKPEDTAVYYCAKTRGYQFVAYGYWGQGTQVTVSS | low polyreactivity
QVQLVESGGGLVQAGGSLRLSCAASGLIFVHYDMGWYRQAPGKERELVAAISAGGGSTYYADSVKGRFTISRYNSKNTVYLQMNSLLPEDTAVYYCIARVVNYFRPRTGAREYDFWGQGTQGTVSS | high polyreactivity
QVQLVESGGGLVQAGGSLRLSCAASGLIFVINAMGCYRQAPGKERELVATISSGVSTNNADSVKGRFTISRDNAKNTVYLQMYSLKPEDTAVYYCNKGQTVSRGYRLYERFVYWGQGTQVTVSS | low polyreactivity
QVQLVESGGGLVQAGGSLRLSCAASGLIFVINAMGWYRQAPGTERELVATISSGVSTNYADSVKGRFTISRDNAKNTVYLQMNSLKPEDTAVYYCNKGQTVSRGYRLYERYVYWGQGTQVTVSS | low polyreactivity
QVQLVESGGGLVQAGGSLRLSCAASGLIFVRYAMGWYRQAPGKERELVATITWSGGTTYADSVKGRFTISRDNGKNTVYLQMNSLKPEDTEVYDCAVEWPAWTDSDYPVGGHAFGYWGQVTQVTVSS | low polyreactivity
QVQLVESGGGLVQAGGSLRLSCAASGLIFVVYAMGWYRQAPGKERELVAAISRSGGRTYYADSVKGRFTISRDNAKNTVYLQMNSLKPEDTAVYYCAARRYSTTFGRLFDYWGQGTQVTVSS | high polyreactivity
QVQLVESGGGLVQAGGSLRLSCAASGLIFVVYTMGWYRQAPGKERELVAAITGRGGSTYADSVKGRFTISRDNAKNTVYLQMNSLKPEDNAVYYCNRADYYGYRFRVYDRLDYWGQGTQVTVSS | low polyreactivity
QVQLVESGGGLVQAGGSLRLSCAASGLIFWGYTMGWYRQAPGKERELVAAISRSGGRTYYADSVKGRFTISRDNAKNTVYLQMNSLKPEDTAVYYCAARYYYWGQGTQVTVSS | high polyreactivity

Sequence | polyreactivity (PSR sort gate)
QVQLVESGGGLVQAGGSLRLSCAASGLIFWLNAMGWYRQAPGKERELVAAISSSGGRTYYADSVKGRFTISRDNAKNTVYLQMNSLKPEDTAVYYCNRGQQGRGWWGYDYWGHGTQVTVSS | high polyreactivity
QVQLVESGGGLVQAGGSLRLSCAASGLIFWYNAMGWYRQAPGKEREFVAAITSDGGRTYYADSVKGRFTISRDNAKNTVYLQMNSLKPEDTAVYYCTARGYGYLGRKGGYSYGYYYWGQGTQVTVSS | low polyreactivity
QVQLVESGGGLVQAGGSLRLSCAASGLIFWYYAMGWYRQAPGKERELVATISWSGGSTYYADSVKGRFTISRDNAKNTVYLQMNSLKPEDTAVYYCAAVGFRAYVARGYWYYYWGQGTQVTVSS | high polyreactivity
QVQLVESGGGLVQAGGSLRLSCAASGLIFWYYTMGWYRQAPGKESELVAAITIGGSTYYADSVKGRFTISRDNAKNTVYLQMNSLKPEDTAVYYCNTRRGRSPGGRYEYDYWGQGTQVTVSS | low polyreactivity
QVQLVESGGGLVQAGGSLRLSCAASGLIFYDNMGWYRPAPGKERELVAAISSSGGSTSYADSVKGRFTISRDNAKNTVYLQMNSLKPEDTAVYYCAARLVYEWRRLDYFIAWDYWGQGTQVTVSS | low polyreactivity
QVQLVESGGGLVQAGGSLRLSCAASGLIFYDNMGWYRQAPGKERELLAAISSSGGSTSYADSVKGRFTISRDNAKITVSLQMNCLKPEDTGVYYCAADSYPAYLGFVGFDYWGQGTQVTVSS | low polyreactivity
QVQLVESGGGLVQAGGSLRLSCAASGLIFYDNMGWYRQAPGKERELVAAISSSGGSTSYADSVKGRFTISRDNAKNTVYLQMNSLKPEDTAVYYCAADSYPAYLGFVGFDYWGQGTQVNVSS | low polyreactivity
QVQLVESGGGLVQAGGSLRLSCAASGLIFYGNAMGWYRQAPGKERELVADITGSSVRTYYADSVKGRFTISRDNAKNTDYLQMNSLKPEDTAVYYCAATYGYLYTGLSRYDYWGQGTQVTVSS | low polyreactivity
QVQLVESGGGLVQAGGSLRLSCAASGLIFYGYAMGWYRQAPGKERELVAAISSGGSTNYADSVKGRFTISRDNAKNTVYLQMNSLKPEDTAVYYCAAKPIFYRTILYYYWGQGTQVTVSS | high polyreactivity
QVQLVESGGGLVQAGGSLRLSCAASGLIFYKYAKGWYRQAPGKERELVAAISRGDNTYYADSVKGRFTISRDNAKNTVYLQMNSLKPEDTAVYYCAAYRWIYQSQYQGYWLDYWGQGTQVTVSS | high polyreactivity
QVQLVESGGGLVQAGGSLRLSCAASGLIFYKYAMGWYRQAPGKERELVAAIRWSGGSTYYADSVKGRFTISRDNAKNTVYLQMNSLKPEDTAVYYCAALSWNHQYEYWGQGTQVTVSS | high polyreactivity
QVQLVESGGGLVQAGGSLRLSCAASGLIFYLYAMGWYRQQPGKERELVARMSRGGSTNYADSVKGRFTISRDNAKNTVYLQLNSLKPEDTAVDYCAADWFVSLGEMYYWGQGTQGTVSS | low polyreactivity
QVQLVESGGGLVQAGGSLRLSCAASGLIFYPYAMGWYRQAPGKERELVAGISSSGDSTYYADSVKGRFTISRDNAKNTVYLEMNSLKPEDTAVYYCNADGWYFEYWGQGTHVTVSS | low polyreactivity
QVQLVESGGGLVQAGGSLRLSCAASGLIFYRYAMGWYRQAPGKERELVAAISSGGSTYYADSVKGRFTISRDNAKNTVYLQMNSLKPEDTAVYYCADRTRVSPQIHIYRAYGYWGQGTQVTVSS | high polyreactivity
QVQLVESGGGLVQAGGSLRLSCAASGLIFYRYAMGWYRQAPGKERELVAVISWIGCNTYYADSVKGRFTISRDNAKNTVYLQMNSLKPEDTAVYYCAVATGPVSYRRYYWGQGTQVTVSS | high polyreactivity
QVQLVESGGGLVQAGGSLRLSCAASGLIFYSNAMGWYRQAPGKDRELVAAITTSGSSTYYADSVKGRFTISRDNAKNTVYIPMNSLKPEDTAVYYCATEWRSNYWGQGTQVTVSS | low polyreactivity
QVQLVESGGGLVQAGGSLRLSCAASGLIFYTYAMGWYRQAPGIERELVATISKRDGGTYYADSVKGRFTISRDNAKNTVYLQMNSLKPEDTAVYYCDAERSYSYWAYDYWGQGTQVTVSS | high polyreactivity
QVQLVESGGGLVQAGGSLRLSCAASGLIFYVYAMGWYRQAPGKERELVAAISFRGTSTYADSVKGRFTISRDNAKNTVYFQMNSLKPEDTAVYYCAVTGFDVLWPSLGGELDYWGQGTQVTVSS | low polyreactivity
QVQLVESGGGLVQAGGSLRLSCAASGLIFYYNAMGWYRQAPGKERELVAAISSDGTTDYADSVKGRFTISRDNAKNTVYLQMNSLKPEDTAVYYCNADKAVKLSGYGRADYDYWGQGTQVTVSS | low polyreactivity
QVQLVESGGGLVQAGGSLRLSCAASGLIFYYYAMGWYRQAPGKERELVAAITGSGGSTYYADSVKGRFTISRDNAKNTVYLQMNSLKPEDTAVYYCAADGIYTYEYWGQGTQVTVSS | low polyreactivity
